Assay results as given in PMC9808734 (Nature Communications, 2023).

B1: HLAA3_9 (VHH)
VHH: EVQLVESGGGLVQPGGSLRLSCAASGFNISTWLIHWVRQAPGKGLEWVAVVYPDSSYTYYADSVKGRFTISADTSKNTAYLQMNSLRAEDTAVYYCSRSWFSKSAMDYWGQGTLVTVSS
B2: HLAA3_4 (VHH)
VHH: EVQLVESGGGLVQPGGSLRLSCAASGFNIYSYAMHWVRQAPGKGLEWVASFVPGSYATYYADSVKGRFTISADTSKNTAYLQMNSLRAEDTAVYYCSRGYYASYYFDVWGQGTLVTVSS
B3: HLAA3_6 (VHH)
VHH: EVQLVESGGGLVQPGGSLRLSCAASGFNIFGYYMHWVRQAPGKGLEWVAVVSPGSGYTNYADSVKGRFTISADTSKNTAYLQMNSLRAEDTAVYYCSRALYSAYFAYWGQGTLVTVSS
B4: HLAA3_10 (VHH)
VHH: EVQLVESGGGLVQPGGSLRLSCAASGFNVYYSGMHWVRQAPGKGLEWVAKISPDSGSTYYADSVKGRFTISADTSKNTAYLQMNSLRAEDTAVYYCSRDMYSVRSAMDYWGQGTLVTVSS
B5: HLAA3_8 (VHH)
VHH: EVQLVESGGGLVQPGGSLRLSCAASGFNIYSYYIHWVRQAPGKGLEWVAKIYPDSGYTYYADSVKGRFTISADTSKNTAYLQMNSLRAEDTAVYYCSRSFSRYGYMDYWGQGTLVTVSS
B6: HLAA3_7 (VHH)
VHH: EVQLVESGGGLVQPGGSLRLSCAASGFNVYYYWMHWVRQAPGKGLEWVASIYPDSDNTYYADSVKGRFTISADTSKNTAYLQMNSLRAEDTAVYYCSRGDYYYSYLDYWGQGTLVTVSS
B7: HLAA3_5 (VHH)
VHH: EVQLVESGGGLVQPGGSLRLSCAASGFNLSYYWMHWVRQAPGKGLEWVASIYPDGSYTWYADSVKGRFTISADTSKNTAYLQMNSLRAEDTAVYYCSRGTYFAMDYWGQGTLVTVSS
B8: HLAA3_11 (VHH)
VHH: EVQLVESGGGLVQPGGSLRLSCAASGFNIYSYGIHWVRQAPGKGLEWVAKVSPSSGYTYYADSVKGRFTISADTSKNTAYLQMNSLRAEDTAVYYCSRQYGYPYYFDYWGQGTLVTVSS
B9: HLAA3_3 (VHH)
VHH: EVQLVESGGGLVQPGGSLRLSCAASGFNIYSYAMHWVRQAPGKGLEWVASVAPGSGYTYYADSVKGRFTISADTSKNTAYLQMNSLRAEDTAVYYCSRNKYYTAYYMDYWGQGTLVTVSS
B10: HLAA3_1 (VHH)
VHH: EVQLVESGGGLVQPGGSLRLSCAASGFNVQGDGMHWVRQAPGKGLEWVAMVGPYSSYTYYADSVKGRFTISADTSKNTAYLQMNSLRAEDTAVYYCSRYSDGAFDYWGQGTLVTVSS
B11: HLAA3_2 (VHH)
VHH: EVQLVESGGGLVQPGGSLRLSCAASGFNITKYSIHWVRQAPGKGLEWVAMVGPYSSYTYYADSVKGRFTISADTSKNTAYLQMNSLRAEDTAVYYCSRFYSSYAFDVWGQGTLVTVSS

molecular target: HLA-A3 on CFPAC parental cells (Homo sapiens, HLA-A3 serotype, allele …, strain)

Does B1 bind?
Result: binds

Does B2 bind?
Result: binds

Does B3 bind?
Result: binds

Does B4 bind?
Result: binds

Does B5 bind?
Result: binds

Does B6 bind?
Result: binds

Does B7 bind?
Result: binds

Does B8 bind?
Result: binds

Does B9 bind?
Result: binds

Does B10 bind?
Result: binds

Does B11 bind?
Result: binds
